Reference: US7754684B2, “Macromolecular platinum chelates” (priority 2003, dated 2010)

Key:
[1] = Platinum release from PBS (percent small Pt species released from polymer-platinum conjugate); assay type: physicochemical; conditions: PBS at 37° C.
Method: The compound tested comprised a poly(N-(2-hydroxypropyl)methacrylamide (90%)-co-(N-(linker)-Pt complex)methacrylamide (10%)) polymer and either cis-diammine or 1R,2R-diaminocyclohexane (DACH) as the stable ligands/chelate of the Pt complex. The leaving-ligand comprised an N,O bidentate ligand with amidoaspartate (Asp) or amidomalonate (Ama).
The percent of small platinum species released over time was measured by dissolving about 30 mg of the polymer-platinum conjugate in 15 mL of phosphate buffered saline (10 mM phosphate, 123 mM Cl^−) and incubating the solution at 37° C. in a water bath. At indicated times, 2.0 mL aliquots were transferred to a centrifugal filter with a 3 kDa nominal molecular weight cutoff (Centricon YM-3 from Millipore) and spun until >1.5 mL of filtrate had accumulated. The timed filtrates and the original solution were analyzed for platinum by ICP-OES. The percent of small Pt species released was determined using the formula: ((ppm Pt in filtrate)/(ppm Pt in stock solution)) X 100.

[2] = Table 2. Comparison of representative compounds C1-C13 of this invention versus carboplatin.
Source text: Table printed on a drawing sheet, FIGURE 15
Title: Table 2. Comparison of representative compounds C1-C13 of this invention versus carboplatin.
The patent's description of the figure: FIG. 15 is Table 2.
First reader's note: Relative TGI is an in-vivo tumor growth inhibition class relative to carboplatin; C2, C3 and C5 are printed with 'Ama-Pt' (hyphen) instead of 'Ama=Pt'.

[3] = Maximum tolerated dosage used in the B16F10 murine melanoma model; assay type: in vivo, C57BL/6 mice; conditions: mice
Method: C57BL/6 mice (10 animals per compound treatment group) were dosed with the amount of compound indicated. The mice were inoculated subcutaneously in the right rear flank with 10^6 B16F10 murine melanoma cells. Beginning at day 6 post-implantation, tumor size was measured daily using calipers under light Methfurane anesthesia. The mass of the resulting tumor in milligrams was estimated using the formula W^2(L)/2 where W is the length of the shorter tumor dimension and L is the length of the longer dimension. Treatment was commenced when the tumor was 50-75 mg or larger. Each animal was followed individually so that Day 1 of treatment for each animal was the day on which that animal's tumor reached the appropriate size. The test compounds were administered […] through the tail vein using a volume of 0.2-0.3 mL per 20 grams body weight. The animals were observed and weighed daily prior to dosing to establish the proper dosing volume for that day and such was continued until the end of the study. […]

[4] = Platinum release from PBS (percent small Pt species released from polymer-platinum conjugate); assay type: physicochemical
[5] = test system: B16F10 murine melanoma cells; test: B16F10 murine melanoma tumor growth inhibition in C57BL/6 mice; assay type: in vivo; conditions: each compound at its MTD (20 mgPt/kg vs. 50 mgPt/Kg), groups of ten mice
Method: C57BL/6 mice (10 animals per compound treatment group) were dosed with the amount of compound indicated. The mice were inoculated subcutaneously in the right rear flank with 10^6 B16F10 murine melanoma cells. Beginning at day 6 post-implantation, tumor size was measured daily using calipers under light Methfurane anesthesia. The mass of the resulting tumor in milligrams was estimated using the formula W^2(L)/2 where W is the length of the shorter tumor dimension and L is the length of the longer dimension. Treatment was commenced when the tumor was 50-75 mg or larger. Each animal was followed individually so that Day 1 of treatment for each animal was the day on which that animal's tumor reached the appropriate size. The test compounds were administered […] through the tail vein using a volume of 0.2-0.3 mL per 20 grams body weight. The animals were observed and weighed daily prior to dosing to establish the proper dosing volume for that day and such was continued until the end of the study.
Using the above procedure, a number of exemplary compounds of this invention were compared to carboplatin. […]

With Poly(HPMA)-GG-Asp=Pt=1R,2R-DACH [54b] the “% Pt Release” value ([1]; 3 h) was 3.20% and the “% Pt Release” value ([1]; 24 h) was 10.68%.

For “p(HMPA)-GFLG-Ama=Pt=DACH [C2] [listing 1 of 2 here]”, the “Pt release (% at 24 h)” value [2] was 2.6 % at 24 h.

For “p(HMPA)-GFLG-Ama=Pt=DACH [C2] [listing 2 of 2 here]”, the “maximum tolerated dosage (MTD)” value [3] was 50 mgPt/kg.

In the case of poly(HPMA)-GFLG-Asp=Pt(NH3)2 [60a], the “% Pt Release” value ([1]; 3 h) is reported as 1.95% and the “% Pt Release” value ([1]; 24 h) is reported as 5.85%.

With “poly(HPMA)-GFLG-C3-Sulf-Ama=Pt(NH3)2 [75a]” the “% Pt Release” value ([1]; 3 h) was 3.02% and the “% Pt Release” value ([1]; 24 h) was 5.44%.

For poly(HPMA)-GG-Ama=Pt(NH3)2 [53a], the “% Pt Release” value ([1]; 3 h) was 1.4% and the “% Pt Release” value ([1]; 24 h) was 4.6%.

For poly(HPMA)-GG-Ama=Pt=1R,2R-DACH [53b], the “% Pt Release” value ([1]; 3 h) was 1.3% and the “% Pt Release” value ([1]; 24 h) was 5.5%.

For poly(HPMA)-GG-Asp=Pt(NH3)2 [54a], the “Pt release in PBS at 38.C” value ([4]; 3 hr) was 3.92% and the “Pt release in PBS at 38.C” value ([4]; 24 hr) was 11.02%.

In the case of “poly(HPMA)-GGG-Ama=Pt=1R, 2R-DACH [C13] [listing 1 of 2 here]”, the “Pt release (% at 24 h)” value [2] is reported as 3.6 % at 24 h.

In the case of “poly(HPMA)-GGG-Ama=Pt=1R, 2R-DACH [C13] [listing 2 of 2 here]”, the “delay in tumor growth, C13 versus C2 (FIG. 14)” value [5] is reported as “prolonged delay in tumor growth compared to compound C2” and the “maximum tolerated dosage (MTD)” value [3] is reported as 20 mgPt/kg.

In the case of poly(HPMA)-GGGG-Ama=PtDACH [57b], the “% Pt Release” value ([1]; 3 h) is reported as 0.972% and the “% Pt Release” value ([1]; 24 h) is reported as 3.173%.
